Measurements published in article PMC4439582 (Immunity, 2015).
Blank lines part the entries; values can stand above or below the molecule they belong to.

Tests used:
[1] = biological target: IL-2Rβ/IL-2Rγ (Homo sapiens) (UniProt P14784); settings: cited from earlier work
[2] = biological target: mIL-2:S4B6 immunocomplex (mouse | not stated) (UniProt P04351); assay: SPR
[3] = biological target: mouse interleukin-2 displayed on the surface of yeast (mouse, UniProt P04351); assay: flow cytometry on cells
[4] = biological target: mouse interleukin-2 (mouse) (UniProt P04351)

Molecule: IL-2 (from UniProt P60568)
Kd [1]: 1 nM

fold enhancement of binding over free mIL-2 [2]: 6 fold
Molecule: mouse interleukin-2 receptor-β (from UniProt P16297 27-240)

binding result [3]: binds | fold higher apparent affinity than the monovalent form [4]: > 25 fold
B1: S4B6 antibody (antibody, V domains shown)
VH: EVQLQESGAELVRPGTSVKLSCKVSGDTITAYYLHFVRQRPGQGLEWIGRIDPEDDSTKYAENFKNKATFTADASSNTAYLRLSSLTSEDTATYFCTTVTFYYSRELRWFAYWGQGTLVTVSS
VL: DIQVTQSPASLSASLEEIVTITCQASQDIGNYLSWYQQKLGKSPQLLIHSATSLADGVPSRFSGSRSGTQYSLKINRLQVEDTGIYYCLQHYSTPYTFGAGTKLELK

binding result [3]: binds
B2: JES6-1 antibody (antibody, V domains shown)
VH: EIQLQQSGPELRRPGSSVKLSCKASGYNITDYLIHWVRHRPEHGLEWIGWIDPEDGETRYAQKFQSKATLTADTSSNAAYMQLSSLTPEDTATYFCARSLDSTYIYPFAYWGQGTLVTVSS
VL: DIVMTQSPFSLAVSEGEMVTINCKSSQSLLSSGNQKNYLAWYQQKPGQSPKLLIYYASTGQSGVPDRFIGSGSGTDFTLTISDVQAEDLADYYCLQHYISPPTFGAGTKLELK
